We go through three molecules from patent US6649392 (US Dept. of Health and Human Services, dated 2003).

Some results are limits rather than exact numbers.

Sequences and labels used below:
T1: RNase A (bovine pancreatic) (bovine, UniProt P61823 27-150)
T1 construct: also called bovine RNase A
T1 sequence (looked up): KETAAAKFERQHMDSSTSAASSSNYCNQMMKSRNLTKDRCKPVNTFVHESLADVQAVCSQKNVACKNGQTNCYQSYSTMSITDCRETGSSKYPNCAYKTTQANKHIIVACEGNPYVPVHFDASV

B1: placental ribonuclease inhibitor (other, UniProt P13489 2-461, looked up)
chain: SLDIQSLDIQCEELSDARWAELLPLLQQCQVVRLDDCGLTEARCKDISSALRVNPALAELNLRSNELGDVGVHCVLQGLQTPSCKIQKLSLQNCCLTGAGCGVLSSTLRTLPTLQELHLSDNLLGDAGLQLLCEGLLDPQCRLEKLQLEYCSLSAASCEPLASVLRAKPDFKELTVSNNDINEAGVRVLCQGLKDSPCQLEALKLESCGVTSDNCRDLCGIVASKASLRELALGSNKLGDVGMAELCPGLLHPSSRLRTLWIWECGITAKGCGDLCRVLRAKESLKELSLAGNELGDEGARLLCETLLEPGCQLESLWVKSCSFTAACCSHFSSVLAQNRFLLELQISNNRLEDAGVRELCQGLGQPGSVLRVLWLADCDVSDSSCSSLAATLLANHSLRELDLSNNCLGDAGILQLVESVRQPGCLLEQLVLYDIYWSEEMEDRLQALEKDKPSLRVIS
notes: also called PRI
B2: recombinant Met(-1) human pancreatic ribonuclease (enzyme)
chain: MKESRAKKFQRQHMDSDSSPSSSSTYCNQMMRRRNMTQGRCKPVNTFVHEPLVDVQNVCFQEKVTCKNGQGNCYKSNSSMHITDCRLTNGSRYPNCAYRTSPKERHIIVACEGSPYVPVHFDASVEDST
notes: mature; also called rhRNase; hRNase
B3: native Onc purified from the eggs of Rana pipiens (enzyme, UniProt P22069 1-104, looked up)
chain: QDWLTFQKKHITNTRDVDCDNIMSTNLFHCKDKNTFIYSRPEPVKAICKGIIASKNVLTTSEFYLSDCNVTSRPCKYKLKKSTNKFCVTCENQAPVHFVGVGSC
modifications: pyroglutamyl residue at position 1 (amino terminus)
notes: mature; also called nOnc; ONCONASE

Experiment [1] addresses rhRNase1-11-rOnc10-104 hybrid (human; Rana pipiens) (UniProt P07998). As to the kind of experiment: approximate Ki calculated from I50, inhibition of RNase activity (UpG substrate, spectrophotometric); row rhRNase1-11-Onc10-104.
Experiment [2] has as its target B2. As to the kind of experiment: steady-state tight-binding inhibition of RNase activity (CpA substrate, spectrophotometric); row rhRNase. How it is done: (§1) Steady-state inhibition constants (K_i) for PRI interaction were determined using a modification of a method (Vincentini et al., Biochemistry 29:8827–8834 (1990)) to analyse competitive slow tight-binding inhibition mechanisms. Steady-state rates of product formation were calculated by a spectrophotometric method. […] The reaction was started by the addition of enzyme (0.01 to 2 nM depending on the assayed protein) and followed during 90–120 min. Several inhibitor concentrations were distributed below and above the enzyme concentration. […] The amount of product formed was calculated by following the absorbance decrease at 286 nm for CpA (change in ε=521 M^-1) and at 280 nm for UpG (change in ε=757 M^-1 cm^-1). The calculated steady-state rates for each inhibitor concentration were fitted by nonlinear regression to the equation for tight binding inhibition as described by Vicentini et al. (1990). In each case $I50$, defined as the total inhibitor concentration required to give 50% inhibition, were deduced from the V_s-I Dixon plot and compared to the calculated K_i, considering in each case the total enzyme concentration.
(§2) [a]K_i values were calculated from the observed steady-state rates (v_s) at different inhibitor concentrations, by fitting the data to the tight-binding non-linear regression equation.

The target of experiment [3] is B3. As to the kind of experiment: approximate Ki calculated from I50, inhibition of RNase activity (UpG substrate, spectrophotometric); row nOnc. How it is done: as §1, §2
Experiment [4] has as its target rOnc1-9-hRNase12-127 hybrid (Rana pipiens; human) (UniProt P07998). As to the kind of experiment: steady-state inhibition of RNase activity by PRI.
Experiment [5] has as its target T1, RNase A (bovine pancreatic). As to the kind of experiment: steady-state tight-binding inhibition of RNase activity (CpA substrate, spectrophotometric); row RNaseA. How it is done:
as §1, §2

The target in experiment [6] is rOnc1-9-hRNase12-127 hybrid (Rana pipiens; human) (UniProt P07998). As to the kind of experiment: steady-state tight-binding inhibition of RNase activity (CpA substrate, spectrophotometric); row rOnc1-9-hRNase12-127.
In experiment [7] the target is rhRNase1-11-rOnc10-104 hybrid (human; Rana pipiens) (UniProt P07998). As to the kind of experiment: approximate Ki from I50, inhibition of RNase activity by PRI.
Experiment [8] has as its target B1. As to the kind of experiment: steady-state inhibition of RNase activity by PRI. How it is done: as §1, §2

Broadly, the Ki is the dissociation constant of the complex between target and ligand, obtained from inhibition or displacement. Regarding B1, the Ki in experiment [1] is over 400 nM; in experiment [2], 0.0002 nM; in experiment [3], at least 100000 nM; in experiment [5] it was 0.058 pM; in experiment [6] it was 0.0056 nM. Further, in experiment [4], the fold increase of Ki in relation to rhRNase stood at 30 fold. Besides, in experiment [7], the fold increase of PRI affinity in relation to Onc is 3 fold.
Consider B2, for which, in experiment [8], the binding result is recorded as “binds”.
Still for that read-out and setting: for B3 the value was “binds”.
